Measurements reported in the nanobody polyreactivity screen of Harvey et al. (2022).

Experiment: yeast display, Sf9 membrane polyspecificity reagent, FACS + sequencing; frameworks hold sequencing errors
In short: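 Genes from sorted yeast were amplified by colony PCR, read by MiSeq 2 × 250 sequencing and filtered on CDR length. These cells carried a synthetic nanobody library in Saccharomyces cerevisiae BJ5465 and were sorted by FACS into low and high (top ~1%) gates on anti-HA and streptavidin fluorescence. Polyreactivity is labelled according to the gate of origin.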

QVQLVESGGGLVQSGGSLRLSCAASGRTFYGNAMGWYRQAPGKERELVAAITSSGGSTYYADSVKGRFTISRDNAKNTVYLQMNSLKPEDNAVYYCAAYTYLEDFESWGQGTQVTVSS
polyreactivity (PSR sort gate): high polyreactivity

QVQLVDSGVGLVQAGGRLSLSCAASGLIFDFYAMGGYRQAPGKERELVATISWSGGTTSYADSVKGLFTISRDNAKNTVYIQMNSLKPEDTAVYYCAADGFQYTLGNYYWGQGTQVTLSS
polyreactivity (PSR sort gate): high polyreactivity

QVQHVESGGGLVQAGGSLRLSCSASGFTFYSYAMGWYRQAPGTERELLAVISKRGGSTRYADSVKGRFTISRDNAKNSVYFQMNSLKPEDTAVYYCNADQHSMTYNEFDYWGQGTQVTVSS
polyreactivity (PSR sort gate): low polyreactivity

QVQLVESGGGLVQAGGSLRLSCAASGRTLYRNAMGWDRQAPGKERELVATITSGGSTYYADSVKGRFTISRDTAKNTVYLLMNSLKPEDTAVYYCNADWYWRVYWGQGTQVTVSS
polyreactivity (PSR sort gate): high polyreactivity

QVQLVESGGGLVQAGGSLRLSCAASGSTFVAYAMGSYRQAPGKERELVAAISASGVRTYYADSVKGRFTISRDNAKNTVYLQMNSLKPEDTAVYYCAATVFRKYRYGYWGQGTQVTVSS
polyreactivity (PSR sort gate): high polyreactivity

QVQLVESGGGVIQAGGSLRLSCAASGRTFYRNTMGWYRQAPGKERELVASISRGGRTNYADSVKGRFTISRDNAKNTVYLQMNSLKREDTAVYYCAKQTSYGGIIRYYASCYGYWGQGTQVTVSS
polyreactivity (PSR sort gate): high polyreactivity

QVQLVESGGGLVQAGGSLRLSCAASGRTFTIYARGWYRHAPGKERELVAAISSGSRTYYADSVKGRFTISRDNAKNTVYLQMNSLKPEDTAVYYCAASLTRHGYYRLFDYWGQGTQVTVSS
polyreactivity (PSR sort gate): high polyreactivity

QVQLVESGGGLVQAGGSLRLSCAASGRTFALYAMGWYRQATGKERELVAAITWSGGSTYYADSVKGRFTISRDNAKNTVYLQMNSLKPEDTAVYYCAAQWPKSKYGYWGQGTQVTVSS
polyreactivity (PSR sort gate): high polyreactivity

QVQLVESGGGLVQAGGSLRLSCAASGSTFKRNAMGWYRQAPVKERELVATITRRGGSTYADSVKGRFTISRDNAKNTVYLQMNSLKAEDTAVYYCARDGFSGGMDYWGQGTQVTVSS
polyreactivity (PSR sort gate): low polyreactivity

QVQLVESGGGIVQAGGSLRLSCAASGITFKGYTMGWYRQAPGKERELVATISRGGRTYADSVKGRFTISRDNAKNTVYLQMNSLKPEDTAVYYCAAQAERYGYEYWGQGTQVTVSS
polyreactivity (PSR sort gate): low polyreactivity

QVQLVESGGGLVQAGGSLRLSCAASGFIFTSYAMGWYRQAPGKERELVAAISGSAASTYYADSVKGRFTISRDNAKNTVYLQMNSLKPEDTAVYYCAADYQGYTPSDGRYYWGQGTQVTVSS
polyreactivity (PSR sort gate): low polyreactivity

QVQRVESGGRLVQAGGILRVSCAASGGTFGINAMGWYRQSPGKEREFVAAITRGDGSTYYADSVKGRFTISRDNAKNTVFIQMKSLKPEDTAVYYCAKRYFVYYSMDYWGQGTQVTVSS
polyreactivity (PSR sort gate): low polyreactivity

QVQLVESGGGLVQAGGSLRLSCAASGRTLIWYTMGWYRQAPGKERELVAAITSGGSTYYADSVKGRFTISRDNAKNTVYLRMNSLKPEDTAVYYCAAVYPAAPRAYGYWGQGTQVTVSS
polyreactivity (PSR sort gate): low polyreactivity

QVQLVESGGGLVQAGGSLRLSCAASGRIFPDYVMGWYRQAPGKEREFVAIISYSGVRTYYADSVKGRFTISRDNAKNTVYLQMNSLKPEDTAVYYCAADFKQKGHRTRTTYWGQGTQVTVSS
polyreactivity (PSR sort gate): high polyreactivity

QVQLVESGGGLVQAGGSLRLSFAASGNILKSYAMGWYRQAHGKERELVAAISSSGGSTYYADSVKGRFTISRDNAKNSVYLQMNSLKPEDTAVYYCNAGAKSGKYYYWGQGTKVTVSS
polyreactivity (PSR sort gate): low polyreactivity

QVQLVDSGGGLVQAGGSLRLSCAASGRTFSGNAMGWYRQAPGKERELVAAIRGGGSTYYADSVKGRFTISRDNAKNTVYLQMNSLKPEDTAVYYCAGRSQVYAPAYYRSKYDYWGQGTQVTVSS
polyreactivity (PSR sort gate): high polyreactivity

QVQLVESGGGLVQAGGSLRLSCAASGLIFDSYAMGWYRQAPGKERELVAAITYTGGSTYYADSVKGRFTISRDNAKNTVYLQMNSLKPEDTAVYYCAARRQRDRYGYWGQGTQVTVSS
polyreactivity (PSR sort gate): high polyreactivity

QVQLVESGGGLVQAGGSLRLSCAASGSTFYQYAMGWYRQAPGKERELVAAISWDSGSTYYADSVKGRFTISRDNAKNTVYLQMNSLKPEDTAVYYCAASWYGYYDCYAVEYDYLGQGTQVTVSS
polyreactivity (PSR sort gate): low polyreactivity

QEQRVESGGGFVQAGGSLRLSCAASGFICVDYAMRWYRHARGNEREWVAAITYDGGSTYFADSVKARFTISRDNAKNTVNSQMNSLNPEDTALYYWAADYGYSQYILRQVRLEELDYSGQGTQVTVSS
polyreactivity (PSR sort gate): low polyreactivity

QVQLVESGGGLVQAGGSLRLSCAASGNIFGGYAMGWYRQAPGKERELVATIRDRGGSTYYADSVKGRFTISRDNAKNSVYLQMNSLKPEDTAVYYCNPRFRTYRLTMEYWGQGTQVTVSS
polyreactivity (PSR sort gate): high polyreactivity

QVQHVESRGGLVQAGGSLRLSCAASGRIFGTYGMGRYRQAPGKERELVAAINWRGGSTYYADSVKGRFTISRDNAKNTVYLQMNSLIPEDTAVYYCNARLYRKRLGYWGQGTQVTVSS
polyreactivity (PSR sort gate): high polyreactivity

QVQLVESGGGLVQAGGSLRLSCAASGFTLGYYTMGWYRQAPGKERELVAAIRSNGGSTYYADSVKGRFTISRDNAKNTVYLQMNSLKPEDTAVYYCAADHAYFLTHSSYLFYYWGQGTQVTVSS
polyreactivity (PSR sort gate): high polyreactivity

QVQLVESGGGLVQAGGSLRLSCAASGRTFYLYTMGSSRQAPGKERELVAAITGGGRTYYADSVKGRFTISRDNAKNTVYLQMNSLKPEDTAVYYCNADYAYYSYDYWGQGTQVTVSS
polyreactivity (PSR sort gate): low polyreactivity

QVQLQESGGGLVQAGGSLRLSCAASGYISYWIYMGCYRQAPGKERELLPVLITVLVPIMRIACKAGFTISRDNAKNSVYLQMNSQKPEDTALYYCAVSWYNGDYFSYWGQGTQVTVSS
polyreactivity (PSR sort gate): low polyreactivity

QVQLVESGGGLVQAGGSLRLSCAASGRTFKPYAMGWYRQAPGKERELVAAISSGVSTHYADSVKGRFTISRDNAKNTVYLQMNSLKPEDTAVYYCAADYWVNYWFDYWGQGTQVTVSS
polyreactivity (PSR sort gate): low polyreactivity

QVQLVESGGGLVQAGGSLRLSCAASGRIIGYYVMGWYRQAPGKERELVAAISSRTGTTYYADSVKGRFTISRDYAKNTVYLQMNRLKPEDTAVYYCNARELTTYWSFDYHHSEYDYWGQGTQVTVSS
polyreactivity (PSR sort gate): high polyreactivity

QVQLVESGGGLVQAGGSLRLSCAASGITFDYYAMGWYRQAPGKERELVADISSSGGSTYYADSVKGRFTISRDNAKNSVYLQMNSLKPEDTAVYYCAAVVTKYPTTGFGYWGQGTQVTVSS
polyreactivity (PSR sort gate): high polyreactivity

QVQLVESGGGLVQAGGSLRLSCDASARTFYRNTMGWYRQAPGKERELVAAITRSGGSTYYADSVKGRFTISRDNAKNTVYLQINRLKPEDTAVYYCAASRTYYAPYGYWGQGTQVTVSS
polyreactivity (PSR sort gate): high polyreactivity

QVQLVESGGGLVQAGGSLRLSCAASGSTFRYNTMGWYRQAPGKERELVAGITSGGGRTYADSVKGRFTISRDNAKNTVYLQMNSLKPEDTAVYYCAAGKYYFLSRYDSWGQGTQVTVSS
polyreactivity (PSR sort gate): low polyreactivity

IIQAGGSLRLSCAASGRTFSGYAMGWYRQAPGKERELIADITSGGSTYYADSVKGRFTISRDNAKNTVYLQMNSLKPEDTAVYYCAAERQIRSFWSSRTYEFGYWGQGTQVTVSS
polyreactivity (PSR sort gate): low polyreactivity

QVQLVESGGPLVKSRGSLRLICAASGRTYCEYSMGWYRQAPGKERELVADITNGSRTYYADSVKGRFTISRDNAKNTVYLQMNSLKPEDTSVYYCAADWWKEVDYWGQGTEVTVSS
polyreactivity (PSR sort gate): low polyreactivity

QVQLVESGGGLVQAGGSLRLRWAASGRIFHHYAMGWYRPAPGKERELVAAISSGGSTYYADSVKGRFTISRDNAKNTVYLQMNSLKPEVTAVYYCAAYWYSPEYDYWGQGTQVTLSS
polyreactivity (PSR sort gate): high polyreactivity

QVKLVESGGGLVKAGGRLRLSCAASGRTFWYNAMGRYRPAPGKESELVAAINFSGGITYYADSVKGRFTISRDNAKNTVYLQMNSLKPEDTAVYYCNAVSRGRDAAGNYWGQGTQVTVSS
polyreactivity (PSR sort gate): high polyreactivity

QVQLVESGGGLVQAGGSLRLSCAASGFIFYSYAMGWYRQAPGKERELVAAISSSGRTNYADSVKGRFTISRDNAKNTVYLQMNSLKPEDTAVYYCNVVRWHGYRVGRYDYWGQGSQVTVSS
polyreactivity (PSR sort gate): high polyreactivity

QVQLVESRGGLVQAGGSLRLSCAASGLTFKWYAMGWYRQAHGKERELVAAISRDGSTYYADSVKGRFTISRDNAKNTVYLQMNSLKPEDTAVYYCAAEPRSRRVLYDYWGQGTQVTVSS
polyreactivity (PSR sort gate): high polyreactivity

QVQLVESGGGLVQAGGSLRLSCAASGSIFGAYAMGWYRQAPGKEWELVAAISWRDGSTYYADSVKGRFTISRDNAKNTVYLQMNCLKPEDTAVYYCAAEYVYIFYDSYYWGQGTQVTVSS
polyreactivity (PSR sort gate): high polyreactivity

QVQLVESGGGLVQAGGSLRLSCAASGFIFRVYAMGWYRQAPGKERELVAAISSSGSSTFYADSVKGRFTISRDNAKNTVYLQMNSLKPEDTAVYYCNAYVRRIVRSYYWGQGTQVTVSS
polyreactivity (PSR sort gate): high polyreactivity

QVQLVESGLGLVQAGGSLRLSCAASGSIFQRYAMGWYRQAPGKEREFVAAISGRGGSTYYADSVKGRFTISRDNAKNTVYLQMNSLKPEDTAVYYCAADSSRFYGRPRFYYWGQGTQVTVSS
polyreactivity (PSR sort gate): high polyreactivity

QVQLVESGGGLVQAGGSLRLSCAASGRLFWYNAMGWYRQAPGKERELVARITRGTRTYYADSVKGRFTISRDNAKNTVSLQMNSLKPEDTAVYYCRLQLSYTPHYDYWGQGTQVTVSS
polyreactivity (PSR sort gate): high polyreactivity

QVQLVESGGGLVQAGGSLRLSCAASGFTFRKNAMGWYRQAPGKERELVAAISSGTSTYYADSVKGRFTISRDNAKNTVYLQMNSLKPEDTAVYYCNAVSRKVYPGPMDYWGQGTQVTVSS
polyreactivity (PSR sort gate): high polyreactivity

QVQLVESGGGLVQAGGSLRLSCAASGITFWRYAMGWYRQAPGKERELVAAIRWSGSTYADSVKGRFTISRDNAKNTVYLQMNSLKPEDTAVYYCAAYPIGGYHDMDYWGQGTQVTVSS
polyreactivity (PSR sort gate): high polyreactivity

QVQLVESGGGLVQAGGSLRLSCAASGYIFYHYAMGWYRQAPGKERELVATISLGGGRTYYADSVKGRFTISRDNAKNTVYLQMNSLKPEDTAVYYCAAKQYGYYSDYYYWGQGTQVTVSS
polyreactivity (PSR sort gate): high polyreactivity

QVQLVESGGGLVQAGCSLRLSCAASGSIFYRYAMGWYRQAPGKERELVAAISRSGGRTYYADSVKGRFTISRDNAKNTVYIQMNSLKPEDTAVYNCAAESTVGTDLGGDSWGQGTQVTVSS
polyreactivity (PSR sort gate): high polyreactivity
